Results taken from PMC8955265, “Systematic Discovery of FBXW7-Binding Phosphodegrons Highlights Mitogen-Activated Protein Kinases as Important Regulators of Intracellular Protein Levels” (International Journal of Molecular Sciences, 2022).
Where no end group is shown, it is not given here. [ ]: non-standard residue; d: D form. pT = C[C@@H](OP(=O)(O)O)[C@H](N)C(=O)O; pS = N[C@@H](COP(=O)(O)O)C(=O)O; CF = carboxyfluorescein

Target: T1, Skp1-FBXW7 complex (human, UniProt P63208 1-149; Q969H0 263-707)
T1 construct: Skp1, truncated, residues 1-149; cDNA obtained from a HEK293T cell cDNA pool; human FBXW7, residues 263-707 (holds the WD40 domain); it was removed with TEV protease after Ni-NTA; also called purified FBXW7; FBXW7-Skp1 complex; source: E. coli Rosetta (DE3), co-expressed from a bicistronic plasmid (pMG950), purified (Ni-NTA, anion exchange, SEC); not shown: His6, N-terminal, cleaved
Assay: fluorescence polarisation; direct titration: 50 nM CF-labeled CCNE peptide, increasing Skp1-FBXW7 complex; 20 mM Tris pH 8.0, 100 mM NaCl, 0.05% Brij35P, 2 mM TCEP; 384-well plates, 20 uL
Conditions: both partners purified

T1 sequence (P63208 1-149, chain 1 of 2): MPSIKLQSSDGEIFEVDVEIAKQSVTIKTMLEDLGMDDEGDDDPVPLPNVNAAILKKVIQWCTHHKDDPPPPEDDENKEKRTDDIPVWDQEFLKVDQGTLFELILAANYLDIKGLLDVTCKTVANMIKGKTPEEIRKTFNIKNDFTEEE
T1 sequence (Q969H0 263-707, chain 2 of 2): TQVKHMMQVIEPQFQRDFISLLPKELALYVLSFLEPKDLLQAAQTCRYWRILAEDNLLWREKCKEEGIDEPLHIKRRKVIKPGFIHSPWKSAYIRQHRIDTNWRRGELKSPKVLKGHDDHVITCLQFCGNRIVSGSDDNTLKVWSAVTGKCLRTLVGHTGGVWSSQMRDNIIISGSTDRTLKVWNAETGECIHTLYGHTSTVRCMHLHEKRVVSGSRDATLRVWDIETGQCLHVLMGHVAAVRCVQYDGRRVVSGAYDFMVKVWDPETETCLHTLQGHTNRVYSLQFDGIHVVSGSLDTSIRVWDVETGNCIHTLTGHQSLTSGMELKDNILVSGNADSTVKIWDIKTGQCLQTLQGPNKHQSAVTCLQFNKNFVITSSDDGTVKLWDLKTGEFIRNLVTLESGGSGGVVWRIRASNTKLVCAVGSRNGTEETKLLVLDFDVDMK

B1: carboxyfluorescein (CF) labeled CCNE peptide (CF-PSGLLpTPPQpSGKKQ) (peptide)
peptide: {CF}-PSGLL[pT]PPQ[pS]GKKQ
notes: bisphosphorylated degron motif of cyclin E1 (CCNE1); also called fluorescently labeled CCNE peptide; CCNE1 motif; source: synthetic peptide (GenScript)
binding result: binds
